Here are results for 1 substance from patent WO2021180110A1.

This test addresses CD147 (human) (UniProt P35613). Kind of test: SPR, BIAcore 3000, CD147 amine-coupled on CM5 chip, Spike-RBD as analyte. (In general: SPR reads the build-up and loss of mass on a sensor chip optically.)

Consider “new coronavirus S protein (COVID-19 Spike-RBD) (from UniProt P0DTC2 319-541) (ligand; other documents disagree on this pair)”, for which the Kd (commonly the concentration at which binding is half-saturated) is 185 nM, the koff (usually the first-order rate constant of dissociation) amounted to 0.00206 s⁻¹ and the kon (usually the second-order rate constant of association) amounted to 11100 M⁻¹ s⁻¹.
